Values quoted from earlier work in publication PMC11061240.
Where two headings read alike, the source gives them in different places.

Assays:
[1] = target: α-synuclein preformed fibrils (UniProt P37840)
FGL1 [2] = target: FGL1 (UniProt Q08830)
FGL1 [3] = target: FGL1 (UniProt Q08830); assay: BLI

Chain of UniProt Q08830 (Q08830 23-312): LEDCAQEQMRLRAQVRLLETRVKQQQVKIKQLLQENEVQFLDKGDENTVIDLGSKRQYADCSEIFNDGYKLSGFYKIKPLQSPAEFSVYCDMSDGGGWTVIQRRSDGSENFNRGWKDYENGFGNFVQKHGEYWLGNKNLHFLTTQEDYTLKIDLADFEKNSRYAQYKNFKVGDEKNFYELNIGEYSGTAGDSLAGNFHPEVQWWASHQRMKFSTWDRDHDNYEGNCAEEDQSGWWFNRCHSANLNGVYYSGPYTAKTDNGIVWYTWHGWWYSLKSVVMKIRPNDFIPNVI

Kd [1] [nM] | Kd (FGL1 [2]) [µM] | Kd (FGL1 [3]) [nM] | Substance
80 | 7 |  | LAG3 (from UniProt P18627)
 |  | 1.5 | LAG3 ECD (from UniProt Q61790)
